The supplement of paper PMC11316812
± gives the standard deviation of the averaged measurements.

Assays:
[1] = tested on: MCF7; test: percentage of EdU-negative (G0-arrested) nuclei per well, 72 h; higher = more G0 arrest; conditions: reference: sequence is the full UniProt precursor, the tested protein was the secreted form or ectodomain
[2] = tested on: hTERT-HMEC; test: as above; conditions: reference: sequence is the full UniProt precursor, the tested protein was the secreted form or ectodomain
[3] = protein concentration 0.0128525 µM
[4] = protein concentration 0.128525 µM
[5] = protein concentration 0.0277143 µM
[6] = protein concentration 0.277143 µM
[7] = protein concentration 0.0225 µM
[8] = protein concentration 0.0165 µM
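Further: secreted proteins added to cultured cells, EdU pulse at the end, nuclei found by Hoechst imaging, EdU status from nuclear versus surrounding ring intensity ratio, PBS as neutral control.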

Sequence	percentage of EdU-negative [1, 7] [%]	percentage of EdU-negative ([1]; protein concentration 0.225 µM) [%]	percentage of EdU-negative [2, 7] [%]	percentage of EdU-negative ([2]; protein concentration 0.225 µM) [%]	other results
MAPRRVRSFLRGLPALLLLLLFLGPWPAASHGGKYSREKNQPKPSPKRESGEEFRMEKLNQLWEKAQRLHLPPVRLAELHADLKIQERDELAWKKLKLDGLDEDGEKEARLIRNLNVILAKYGLDGKKDARQVTSNSLSGTQEDGLDDPRLEKLWHKAKTSGKFSGEELDKLWREFLHHKEKVHEYNVLLETLSRTEEIHENVISPSDLSDIKGSVLHSRHTELKEKLRSINQGLDRLRRVSHQGYSTEAEFEEPRVIDLWDLAQSANLTDKELEAFREELKHFEAKIEKHNHYQKQLEIAHEKLRHAESVGDGERVSRSREKHALLEGRTKELGYTVKKHLQDLSGRISRARHNEL	–	–	–	–	percentage of EdU-negative [1, 3]: 24.3 ± 0.53%; percentage of EdU-negative [1, 4]: 26.4 ± 1.4%; percentage of EdU-negative [2, 3]: 4.97 ± 0.51%; percentage of EdU-negative [2, 4]: 6.45 ± 0.82%
MAPVAVWAALAVGLELWAAAHALPAQVAFTPYAPEPGSTCRLREYYDQTAQMCCSKCSPGQHAKVFCTKTSDTVCDSCEDSTYTQLWNWVPECLSCGSRCSSDQVETQACTREQNRICTCRPGWYCALSKQEGCRLCAPLRKCRPGFGVARPGTETSDVVCKPCAPGTFSNTTSSTDICRPHQICNVVAIPGNASMDAVCTSTSPTRSMAPGAVHLPQPVSTRSQHTQPTPEPSTAPSTSFLLPMGPSPPAEGSTGDFALPVGLIVGVTALGLLIIGVVNCVIMTQVKKKPLCLQREAKVPHLPADKARGTQGPEQQHLLITAPSSSSSSLESSASALDRRAPTRNQPQAPGVEASGAGEARASTGSSDSSPGGHGTQVNVTCIVNVCSSSDHSSQCSSQASSTMGDTDSSPSESPKDEQVPFSKEECAFRSQLETPETLLGSTEEKPLPLGVPDAGMKPS	–	–	–	–	percentage of EdU-negative [1, 5]: 22.2 ± 1.9%; percentage of EdU-negative [1, 6]: 23.6 ± 1.1%; percentage of EdU-negative [2, 5]: 5.56 ± 0.29%; percentage of EdU-negative [2, 6]: 6.09 ± 1.2%
MEPQLGPEAAALRPGWLALLLWVSALSCSFSLPASSLSSLVPQVRTSYNFGRTFLGLDKCNACIGTSICKKFFKEEIRSDNWLASHLGLPPDSLLSYPANYSDDSKIWRPVEIFRLVSKYQNEISDRRICASASAPKTCSIERVLRKTERFQKWLQAKRLTPDLVQGLASPLLRCPSQRLLDRVVRRYAEVADAGSIFMDHFTDRDKLRLLYTLAVNSHPILLQIFPGAEGWPLPKYLGSCGRFLVSTSTRPLQEFYDAPPDQAADLAYQLLGVLESLRSNDLNYFFYFTHIDAGMFGVFNNGHLFIRDASAVGVIDKQEGSQEANRAGENKDIFSCLVSGCQAQLPSCESISEKQSLVLVCQKLLPRLLQGRFPSPVQDDIDSILVQCGDSIRPDPEVLGAASQLKDILRPLRTCDSRFAYRYPDCKYNDKF [Q9H7Y0]	25.8 ± 2.1	25.3 ± 2	5.59 ± 0.064	5.31 ± 0.38	–
MPRRSLHAAAVLLLVILKEQPSSPAPVNGSKWTYFGPDGENSWSKKYPSCGGLLQSPIDLHSDILQYDASLTPLEFQGYNLSANKQFLLTNNGHSVKLNLPSDMHIQGLQSRYSATQLHLHWGNPNDPHGSEHTVSGQHFAAELHIVHYNSDLYPDASTASNKSEGLAVLAVLIEMGSFNPSYDKIFSHLQHVKYKGQEAFVPGFNIEELLPERTAEYYRYRGSLTTPPCNPTVLWTVFRNPVQISQEQLLALETALYCTHMDDPSPREMINNFRQVQKFDERLVYTSFSQVQVCTAAGLSLGIILSLALAGILGICIVVVVSIWLFRRKSIKKGDNKGVIYKPATKMETEAHA	26 ± 0.83	25.7 ± 0.64	5.44 ± 1.7	5.5 ± 1.2	–
MQGPWVLLLLGLRLQLSLGVIPAEEENPAFWNRQAAEALDAAKKLQPIQKVAKNLILFLGDGLGVPTVTATRILKGQKNGKLGPETPLAMDRFPYLALSKTYNVDRQVPDSAATATAYLCGVKANFQTIGLSAAARFNQCNTTRGNEVISVMNRAKQAGKSVGVVTTTRVQHASPAGTYAHTVNRNWYSDADMPASARQEGCQDIATQLISNMDIDVILGGGRKYMFPMGTPDPEYPADASQNGIRLDGKNLVQEWLAKHQGAWYVWNRTELMQASLDQSVTHLMGLFEPGDTKYEIHRDPTLDPSLMEMTEAALRLLSRNPRGFYLFVEGGRIDHGHHEGVAYQALTEAVMFDDAIERAGQLTSEEDTLTLVTADHSHVFSFGGYTLRGSSIFGLAPSKAQDSKAYTSILYGNGPGYVFNSGVRPDVNESESGSPDYQQQAAVPLSSETHGGEDVAVFARGPQAHLVHGVQEQSFVAHVMAFAACLEPYTACDLAPPACTTDAAHPVAASLPLLAGTLLLLGASAAP	24.8 ± 1.8	24.4 ± 0.42	5.37 ± 0.33	6.16 ± 1.5	–
MCGPDDRCPARWPGPGRAVKCGKGLAAARPGRVERGGAQRGGAGLELHPLLGGRTWRAARDADGCEALGTVAVPFDDDDKIVGGYTCEENSLPYQVSLNSGSHFCGGSLISEQWVVSAAHCYKTRIQVRLGEHNIKVLEGNEQFINAAKIIRHPKYNRDTLDNDIMLIKLSSPAVINARVSTISLPTTPPAAGTECLISGWGNTLSFGADYPDELKCLDAPVLTQAECKASYPGKITNSMFCVGFLEGGKDSCQRDSGGPVVCNGQLQGVVSWGHGCAWKNRPGVYTKVYNYVDWIKDTIAANS	25.3 ± 0.83	26.6 ± 3.7	5.21 ± 0.094	7.39 ± 0.7	–
MKTLLLLAVIMIFGLLQAHGNLVNFHRMIKLTTGKEAALSYGFYGCHCGVGGRGSPKDATDRCCVTHDCCYKRLEKRGCGTKFLSYKFSNSGSRITCAKQDSCRSQLCECDKAAATCFARNKTTYNKKYQYYSNKHCRGSTPRC	–	–	–	–	percentage of EdU-negative [1, 8]: 25.3 ± 2.7%; percentage of EdU-negative ([1]; protein concentration 0.165 µM): 29.2 ± 0.99%; percentage of EdU-negative [2, 8]: 4.75 ± 0.11%; percentage of EdU-negative ([2]; protein concentration 0.165 µM): 6.7 ± 0.9%
